Laboratory results published in IntAct's records for PubMed 24229708.

B1: Runt-related transcription factor 3 (Homo sapiens), Q13761 (parent)
chain: MRIPVDPSTSRRFTPPSPAFPCGGGGGKMGENSGALSAQAAVGPGGRARPEVRSMVDVLADHAGELVRTDSPNFLCSVLPSHWRCNKTLPVAFKVVALGDVPDGTVVTVMAGNDENYSAELRNASAVMKNQVARFNDLRFVGRSGRGKSFTLTITVFTNPTQVATYHRAIKVTVDGPREPRRHRQKLEDQTKPFPDRFGDLERLRMRVTPSTPSPRGSLSTTSHFSSQPQTPIQGTSELNPFSDPRQFDRSFPTLPTLTESRFPDPRMHYPGAMSAAFPYSATPSGTSISSLSVAGMPATSRFHHTYLPPPYPGAPQNQSGPFQANPSPYHLYYGTSSGSYQFSMVAGSSSGGDRSPTRMLASCTSSAASVAAGNLMNPSLGGQSDGVEADGSHSNSPTALSTPGRMDEAVWRPY

Variants of: B1
Conditions: with brd2_human BRD2, P25440
In the case of K94R;K171R, the “effect of a mutation on the interaction” value is reported as “disrupting interaction”.
K87R;K94R;K129R;K148R;K171R;K186R was tested, and the “effect of a mutation on the interaction” value was “disrupting interaction”.
For K171R, the “effect of a mutation on the interaction” value was “decreasing interaction”.
With K94R the “effect of a mutation on the interaction” value was “disrupting interaction”.
